Measurements reported in patent US20130338033A1, “Diagnostic and Prognostic Markers for Metastasis” (VIRGINIA COMMONWEALTH UNIVERSITY, priority 2011, published 2013).

B1: rhIGFBP-2: recombinant human IGFBP-2 protein (protein, UniProt P18065 36-325, looked up)
Insulin-like growth …: AEVLFRCPPCTPERLAACGPPPVAPPAAVAAVAGGARMPCAELVREPGCGCCSVCARLEGEACGVYTPRCGQGLRCYPHPGSELPLQALVMGEGTCEKRRDAEYGASPEQVADNGDDHSEGGLVENHVDSTMNMLGGGGSAGRKPLKSGMKELAVFREKVTEQHRQMGKGGKHHLGLEEPKKLRPPPARTPCQQELDQVLERISTMRLPDERGPLEHLYSLHIPNCDKHGLYNLKQCKMSLNGQRGECWCVNPNTGKLIQGAPTIRGDPECHLFYNEQQEARGVHTQRMQ

How the values were obtained:
[1] = tested on: IGFBP-2; assay: IGFBP-2 ELISA in conditioned media of FM-516 cells infected with Ad.5/3-mda-9; format: cell-based, human; settings: Ad.5/3-mda-9, 1-5 μM (FIG. 4F)
[2] = tested on: HuVECs; assay: HuVEC proliferation (growth kinetics, trypan blue dye exclusion); format: cell-based, human; settings: HuVECs treated with rhIGFBP-2 (FIG. 3B)
Method: FIG. 3 A-H. Pro-angiogenic activity of IGFBP-2. a) Top panel, an antibody-based array comparing the expression levels of regulators of angiogenesis in CM from C8161.9 con-sh and C8161.9-shmda-9 clones was performed as described in Materials and Methods. Bottom panel, graphical representation of the band intensity quantified by densitometry. b) HuVECs were cultured in the presence of recombinant human IGFBP-2 (rhIGFBP-2) protein alone or with neutralizing antibody (NA) and growth kinetics were determined by trypan blue dye exclusion as described in Materials and Methods. Data represents Mean±S.D. c, d & e) HuVECs were treated with rhIGFBP-2 with or without neutralizing antibody (NA) and migration (c), tube formation (d) and vascularization in CAM (e) were analyzed. Data represents Mean±S.D. f) C8161.9 cells were transfected with either scrambled RNA (si-con) or si-IGFBP-2 and CM were analyzed for tube formation on Matrigel (upper panel) and vascularization in CAM (lower panel). g) Pooled clones of C8161.9 cells stably expressing shIGFBP-2 were established and assessed for tumor generation ability in athymic nude mice (n=5, repeated three times). […] Tumor weight was measured at the end of the study. Data represents Mean±S.D. In panel c), d) and g), italicized letters indicate significant differences between groups assessed by Student's t-test (p<0.05). […]

[3] = tested on: VEGF-A promoter; assay: VEGF-A promoter luciferase reporter assay in HuVECs; format: cell-based, human; settings: HuVECs treated with rhIGFBP-2, 48 h after transfection (FIG. 5B)
Method: (§1) FIG. 5A-G. IGFBP-2 upregulates the expression of vascular endothelial growth factor (VEGF-A) through the AKT pathway in HuVECs. a) The expression of VEGF-A mRNA (top panel) and protein (bottom panel) were measured by real-time PCR and ELISA, respectively, after treating HuVECs with the indicated doses of rhIGFBP-2. Data represents Mean±S.D. b) HuVECs were transfected with VEGF-A promoter luciferease reporter plasmid and treated with the indicated concentrations of rhIGFBP-2. 48 h after transfection, cells were harvested for luciferase assays as described in Materials and Methods. c) HuVECs (1×10^6 cells) were treated or untreated with the specified doses of rhIGFBP-2 for the indicated times and expression of pAKT and AKT was analyzed by Western blotting. d) HuVECs were pre-treated with LY294002 (30 min) and then treated with rhIGFBP-2. Top panel, analysis of the expression of pART and AKT by Western blotting. Bottom panel, analysis the expression of VEGF-A by ELISA in the CM. e) HuVECs were treated with rhIGFBP-2 together with anti-αVβ3 integrin antibody or anti-mouse IgG as control. Top panel, analysis of expression of pAKT and AKT by Western blotting. Bottom panel, analysis of expression of VEGF-A by ELISA in the CM. f & g) HuVECs were treated as in “e” and CM was used to analyze tube formation […] and neovascularization in CAM (g). […]

[4] = tested on: chicken chorioallantoic membrane (CAM); assay: Chorioallantoic membrane (CAM) neovascularization assay; format: in vivo; settings: HuVECs treated with rhIGFBP-2 (FIG. 3E)
Method: To detect in vivo angiogenesis, we performed CAM assays as described (28). Either cells or CM in a collagen sponge were implanted onto the CAM at day 8 of fertilization. At day 12, CAMs were fixed with 10% formalin; the neovasculature was examined and photographed.
Fertilized chicken eggs (10 eggs per group) was incubated under routine conditions and a square window was opened in the egg shell at the third day of incubation, after removal of 2-3 ml of albumen to detach the shell from the developing CAM. The window was sealed with a glass of the same size and the eggs were returned to the incubator. Either cells or conditioned media with collagen sponge was implanted onto the CAM at day 8 of incubation. At day 12, CAMs were fixed with 10% formalin the neovasculature was examined and photographed.

[5] = tested on: VEGF-A; assay: VEGF-A expression in HuVECs (real-time PCR, ELISA); format: cell-based, human; settings: HuVECs stimulated with rhIGFBP-2 (FIG. 5A)
Method: as §1

[6] = tested on: HuVECs; assay: HuVEC migration through Matrigel; format: cell-based, human; settings: HuVECs treated with rhIGFBP-2 (FIG. 3C)
From the text: FIG. 2A-G. Effect of mda-9/syntenin on the angiogenic phenotype of human vascular endothelial cells (HuVECs). a) Time course analysis of growth of HuVECs in co-culture with either C8161.9-con-sh or C8161.9-shmda-9 clones. b) Analysis of tube formation by HuVECs co-cultured with C8161.9-con-sh or C8161.9-shmda-9 clones on Matrigel coated plates grown in serum-starved media conditions. Left panel, photomicrograph, Right panel, graphical representation of quantification of tube formation. Data represents Mean±S.D. c) HuVEC migration towards melanoma cells. […] HuVECs migration was quantified and graphical representation is provided in the lower panel. […] The assay was scored after 18 h. Photomicrograph (Left panel) and graphical quantification of migration (Right panel) is presented. […] Left panel, photomicrograph, Right panel, graphical representation of quantitation of tube formation. […]
FIG. 3 A-H. Pro-angiogenic activity of IGFBP-2. a) Top panel, an antibody-based array comparing the expression levels of regulators of angiogenesis in CM from C8161.9 con-sh and C8161.9-shmda-9 clones was performed as described in Materials and Methods. […] Data represents Mean±S.D. c, d & e) HuVECs were treated with rhIGFBP-2 with or without neutralizing antibody (NA) and migration (c), tube formation (d) and vascularization in CAM (e) were analyzed. […] Tumor weight was measured at the end of the study. […]

[7] = tested on: AKT; assay: AKT activation (pAKT Western blotting) in HuVECs; format: cell-based, human; settings: rhIGFBP-2 treatment of HuVECs (FIG. 5C)
Method: as §1

[8] = tested on: HuVECs; assay: Capillary-like tube formation by HuVECs on Matrigel; format: cell-based, human; settings: HuVECs treated with rhIGFBP-2 (FIG. 3D)
Method: Tube formation assays were performed as described previously (28) using an In Vitro Angiogenesis Assay Kit (Chemicon). The degree of network formation was quantified using the provider's instruction.

| VEGF-A promoter activity [3] | Molecule | mda-9/syntenin-induced IGFBP-2 expression [1] | HuVEC proliferation [2] | vascularization in CAM [4] | VEGF-A expression, both RNA and protein [5] | HuVEC migration [6] | time to AKT activation [7] [min] | HuVEC tube formation [8] |
| --- | --- | --- | --- | --- | --- | --- | --- | --- |
| – | CC(C)(C)n1nc(-c2ccc(Cl)cc2)c2c(N)ncnc21 [PP-2] | dose-dependent decrease | – | – | – | – | – | – |
| dose-dependently up-regulated | B1 | – | significantly stimulated | significant vascularization | dose-dependently up-regulated | significantly stimulated | ≤ 15 | significantly stimulated |
